From patent US20120309692A1
One block for each binder: values may come before it.

Biological target: recombinant human glandular kallikrein 2 (hK2) (human) (UniProt P20151)
Experiment: cell-based or functional assay

- hK2 Activity (%) of inhibitor-free control, inhibitor at 0.8 µM: 100%
B1: α1-antichymotrypsin (ACT) (protein, human, UniProt P01011 24-423, looked up)
chain: HPNSPLDEENLTQENQDRGTHVDLGLASANVDFAFSLYKQLVLKAPDKNVIFSPLSISTALAFLSLGAHNTTLTEILKGLKFNLTETSEAEIHQSFQHLLRTLNQSSDELQLSMGNAMFVKEQLSLLDRFTEDAKRLYGSEAFATDFQDSAAAKKLINDYVKNGTRGKITDLIKDLDSQTMMVLVNYIFFKAKWEMPFDPQDTHQSRFYLSKKKWVMVPMMSLHHLTIPYFRDEELSCTVVELKYTGNASALFILPDQDKMEEVEAMLLPETLKRWRDSLEFREIGELYLPKFSISRDYNLNDILLQLGIEEAFTSKADLSGITGARNLAVSQVVHKAVLDVFEEGTEASAATAVKITLLSALVETRTIVRFNRPFLMIIVPTDTQNIFFMSKVTNPKQA

- hK2 Activity (%) of inhibitor-free control, inhibitor at 0.08 µM: 100%
- hK2 Activity (%) of inhibitor-free control, inhibitor at 4 µM: 89%
B2: PSTI (protein, UniProt P00995 24-79, looked up)
chain: DSLGREAKCYNELNGCTKIYDPVCGTDGNTYPNECVLCFENRKRQTSILIQKSGPC

- hK2 Activity (%) of inhibitor-free control, inhibitor at 0.016 µM: 50%
- hK2 Activity (%) of inhibitor-free control, inhibitor at 0.08 µM: 0%
B3: protein C inhibitor (PCI) (protein, UniProt P05154 20-406, looked up)
chain: HRHHPREMKKRVEDLHVGATVAPSSRRDFTFDLYRALASAAPSQSIFFSPVSISMSLAMLSLGAGSSTKMQILEGLGLNLQKSSEKELHRGFQQLLQELNQPRDGFQLSLGNALFTDLVVDLQDTFVSAMKTLYLADTFPTNFRDSAGAMKQINDYVAKQTKGKIVDLLKNLDSNAVVIMVNYIFFKAKWETSFNHKGTQEQDFYVTSETVVRVPMMSREDQYHYLLDRNLSCRVVGVPYQGNATALFILPSEGKMQQVENGLSEKTLRKWLKMFKKRQLELYLPKFSIEGSYQLEKVLPSLGISNVFTSHADLSGISNHSNIQVSEMVHKAVVEVDESGTRAAAATGTIFTFRSARLNSQRLVFNRPFLMFIVDNNILFLGKVNRP
